In PMC6954420, “Heterochromatin protein 1α interacts with parallel RNA and DNA G-quadruplexes”:

Tests used:
[1] = target: T1, HP1α (mouse, UniProt Q61686 1-191); experiment: BLI; pH 7; BLI: 100 mM KCl, 50 mM NaCl, 20 mM Na phosphate, pH 8 (G4) or pH 7 (i-motif, dsDNA), room temp, 500 nM oligo or titration; EMSA: 50 mM Tris-HCl pH 7.5, 100 mM KCl, 0.5 mM EDTA, 0.5 mM DTT, 0.1 mg/ml BSA, room temp 1 h; conditions: protein: recombinant, tags: N-terminal His6 (pPROEX HTb), chain copies: 2
[2] = target: T1, HP1α; experiment: BLI; K+; BLI: 100 mM KCl, 50 mM NaCl, 20 mM Na phosphate, pH 8 (G4) or pH 7 (i-motif, dsDNA), room temp, 500 nM oligo or titration; EMSA: 50 mM Tris-HCl pH 7.5, 100 mM KCl, 0.5 mM EDTA, 0.5 mM DTT, 0.1 mg/ml BSA, room temp 1 h; conditions: protein: recombinant, tags: N-terminal His6 (pPROEX HTb), chain copies: 2
[3] = target: HP1β (mouse, UniProt P83917 1-185); experiment: as above; conditions: protein: recombinant; tags: N-terminal His6 (pPROEX HTb); chain copies: 2; antiparallel G4
Chain of HP1β (P83917 whole entry): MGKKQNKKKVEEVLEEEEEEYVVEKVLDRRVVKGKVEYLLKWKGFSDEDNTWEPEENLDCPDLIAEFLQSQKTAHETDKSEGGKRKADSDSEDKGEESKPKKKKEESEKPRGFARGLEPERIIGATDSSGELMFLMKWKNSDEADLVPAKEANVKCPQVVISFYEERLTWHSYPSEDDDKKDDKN

[4] = target: HP1α 3K-A (mouse, UniProt Q61686 1-191, K104A;K105A;K106A); experiment: as above; conditions: protein: recombinant; tags: N-terminal His6 (pPROEX HTb); chain copies: 2; antiparallel G4
Chain of HP1α 3K-A (Q61686 whole entry K104A/K105A/K106A): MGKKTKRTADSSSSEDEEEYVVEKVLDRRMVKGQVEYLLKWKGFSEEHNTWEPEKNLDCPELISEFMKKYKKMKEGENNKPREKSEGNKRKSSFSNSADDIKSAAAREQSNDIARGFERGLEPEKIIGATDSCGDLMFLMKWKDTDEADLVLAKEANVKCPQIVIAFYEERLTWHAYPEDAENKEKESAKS

[5] = target: HP1γ (mouse, UniProt P23198 1-183); experiment: as above; conditions: protein: recombinant; tags: N-terminal His6 (pPROEX HTb); chain copies: 2; antiparallel G4
Chain of HP1γ (P23198 whole entry): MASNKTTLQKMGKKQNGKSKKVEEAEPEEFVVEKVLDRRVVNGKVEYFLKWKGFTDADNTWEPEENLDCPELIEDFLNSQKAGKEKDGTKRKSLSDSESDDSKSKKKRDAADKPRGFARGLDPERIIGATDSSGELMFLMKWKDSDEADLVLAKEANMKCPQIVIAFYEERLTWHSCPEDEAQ

[6] = target: T1, HP1α; experiment: BLI; BLI: 100 mM KCl, 50 mM NaCl, 20 mM Na phosphate, pH 8 (G4) or pH 7 (i-motif, dsDNA), room temp, 500 nM oligo or titration; EMSA: 50 mM Tris-HCl pH 7.5, 100 mM KCl, 0.5 mM EDTA, 0.5 mM DTT, 0.1 mg/ml BSA, room temp 1 h; conditions: protein: recombinant, tags: N-terminal His6 (pPROEX HTb), chain copies: 2

T1 sequence (Q61686 whole entry): as the sequence (Q61686 whole entry K104A/K105A/K106A) above, with A104K, A105K, A106K counted along it

**Q.** Does TCGTTCCGTTTTTCGTTCCGTTTTTCGTTCCGTTTTTCGTTCCGT (structured_DNA) [LL3rep] bind ([1]; mini-i-motif)?
**A.** no binding

**Q.** With TGGGTTGGGTTGGGTTGGGTTGGGTTGGGTTGGGTTGGGT (structured_DNA) [Oligo B] as the binder, how does the Kd ([2]; parallel G4, monomer-dimer equilibrium) read?
**A.** 69.1 ± 0.9 nM

**Q.** For TGGGTGGGTTAGGGTGGGTGGGTGGGTTAGGGTGGGT (structured_DNA) [Oligo D], which Kd ([2]; parallel G4) is on record?
**A.** 52.6 ± 1.1 nM

**Q.** With GGGCTGCTGGGACTGGTTGGGAGGGCACTCTGGGG (structured_DNA) [src16] as the binder, how does the Kd ([2]; antiparallel G4) read?
**A.** 1630 ± 1700 nM

**Q.** TGGGTGGGTGGGTGGGTGGGTGGGTGGGTGGGT (structured_DNA) [Oligo A] was tested. Which Kd ([2]; parallel G4) did it give?
**A.** 86.8 ± 0.2 nM

**Q.** With TGGGTTAGGGTGGGTTAGGGTGGGTTAGGGTGGGTTAGGGT (structured_DNA) [Oligo C] as the binder, how does the Kd ([2]; parallel G4) read?
**A.** 78.2 ± 0.3 nM

**Q.** Which Kd ([2]; parallel G4) does the source give for AGGGGCGGGCGCGGGAGGAAGGGGGCGGGAGCGGGGCTG (structured_DNA) [bcl2] here?
**A.** 93.5 ± 1.6 nM

**Q.** Which Kd ([2]; parallel G4) does the source give for GGGCGGGCGCCAGGGAGGGG (structured_DNA) [ckit2] here?
**A.** 199 ± 3 nM

**Q.** GGGGCAGCTGGGTCGCTCGGGGAACGGGG (structured_DNA) [src2] was tested. Which Kd ([2]; antiparallel G4) did it give?
**A.** 410 ± 20 nM

**Q.** For TGGGTGGGTTAGGGTTAGGGTGGGTGGGTTAGGGTTAGGGT (structured_DNA) [Oligo E], which Kd ([2]; parallel G4) is on record?
**A.** 43.8 ± 1 nM

**Q.** GGGTGGGTAGGGTGGG (structured_DNA) [c-myc2] was tested. Which Kd ([2]; parallel G4, at least dimer on native PAGE) did it give?
**A.** 610 ± 40 nM

**Q.** Does GGGTTAGGGTTAGGGTTAGGGTTAGGGTTAGGGTTAGGGTTAGGG (structured_DNA) [gTEL45] bind ([2]; antiparallel G4)?
**A.** no binding

**Q.** Does GGGTTAGGGTTAGGGTTAGGGTTAGGGTTAGGGTTAGGGTTAGGG (structured_DNA) [gTEL45] bind [3]?
**A.** no binding

**Q.** Does GGGTTAGGGTTAGGGTTAGGGTTAGGGTTAGGGTTAGGGTTAGGG (structured_DNA) [gTEL45] bind [4]?
**A.** no binding

**Q.** Does GGGTTAGGGTTAGGGTTAGGGTTAGGGTTAGGGTTAGGGTTAGGG (structured_DNA) [gTEL45] bind [5]?
**A.** no binding

**Q.** TGGGTTAGGGTTAGGGTGGGTGGGTTAGGGTTAGGGTGGGT (structured_DNA) [Oligo F] was tested. Which Kd ([2]; parallel G4) did it give?
**A.** 61.7 ± 1.5 nM

**Q.** Does TGGGTTAGGGTTAGGGTTAGGGTGGGTTAGGGTTAGGGTTAGGGT (structured_DNA) [Oligo G] bind ([2]; antiparallel or hybrid G4)?
**A.** no binding

**Q.** For GGGAGGGAGGGCTGGGGG (structured_DNA) [src3], which Kd ([2]; parallel G4) is on record?
**A.** 140 ± 2 nM

**Q.** Does CCCTAACCCTAACCCTAACCCTAACCCTAACCCTAACCCTAACCC (structured_DNA) [cTEL45] bind ([1]; i-motif (partial at pH 7))?
**A.** no binding

**Q.** AGGGCGGTGTGGGAAGAGGGAAGAGGGGGAGG (structured_DNA) [kras] was tested. Which Kd ([2]; parallel G4) did it give?
**A.** 68.8 ± 0.7 nM

**Q.** Does TTTTTTTTTTTTTTTTTTTTTTTTTTTTTTTTTTTTTTTTTTTTT (ssDNA) [Thy45] bind ([6]; unstructured)?
**A.** no binding

**Q.** Does ACCCAAUCCCAAUCCCAAUCCC (ssRNA) [rC-rich22] bind [6]?
**A.** no binding
